Measurements from IntAct's records for PubMed 23063561.

B1: 1-phosphatidylinositol 4,5-bisphosphate phosphodiesterase gamma-1 (Homo sapiens), P19174 (parent)
chain: MAGAASPCANGCGPGAPSDAEVLHLCRSLEVGTVMTLFYSKKSQRPERKTFQVKLETRQITWSRGADKIEGAIDIREIKEIRPGKTSRDFDRYQEDPAFRPDQSHCFVILYGMEFRLKTLSLQATSEDEVNMWIKGLTWLMEDTLQAPTPLQIERWLRKQFYSVDRNREDRISAKDLKNMLSQVNYRVPNMRFLRERLTDLEQRSGDITYGQFAQLYRSLMYSAQKTMDLPFLEASTLRAGERPELCRVSLPEFQQFLLDYQGELWAVDRLQVQEFMLSFLRDPLREIEEPYFFLDEFVTFLFSKENSVWNSQLDAVCPDTMNNPLSHYWISSSHNTYLTGDQFSSESSLEAYARCLRMGCRCIELDCWDGPDGMPVIYHGHTLTTKIKFSDVLHTIKEHAFVASEYPVILSIEDHCSIAQQRNMAQYFKKVLGDTLLTKPVEISADGLPSPNQLKRKILIKHKKLAEGSAYEEVPTSMMYSENDISNSIKNGILYLEDPVNHEWYPHYFVLTSSKIYYSEETSSDQGNEDEEEPKEVSSSTELHSNEKWFHGKLGAGRDGRHIAERLLTEYCIETGAPDGSFLVRESETFVGDYTLSFWRNGKVQHCRIHSRQDAGTPKFFLTDNLVFDSLYDLITHYQQVPLRCNEFEMRLSEPVPQTNAHESKEWYHASLTRAQAEHMLMRVPRDGAFLVRKRNEPNSYAISFRAEGKIKHCRVQQEGQTVMLGNSEFDSLVDLISYYEKHPLYRKMKLRYPINEEALEKIGTAEPDYGALYEGRNPGFYVEANPMPTFKCAVKALFDYKAQREDELTFIKSAIIQNVEKQEGGWWRGDYGGKKQLWFPSNYVEEMVNPVALEPEREHLDENSPLGDLLRGVLDVPACQIAIRPEGKNNRLFVFSISMASVAHWSLDVAADSQEELQDWVKKIREVAQTADARLTEGKIMERRKKIALELSELVVYCRPVPFDEEKIGTERACYRDMSSFPETKAEKYVNKAKGKKFLQYNRLQLSRIYPKGQRLDSSNYDPLPMWICGSQLVALNFQTPDKPMQMNQALFMTGRHCGYVLQPSTMRDEAFDPFDKSSLRGLEPCAISIEVLGARHLPKNGRGIVCPFVEIEVAGAEYDSTKQKTEFVVDNGLNPVWPAKPFHFQISNPEFAFLRFVVYEEDMFSDQNFLAQATFPVKGLKTGYRAVPLKNNYSEDLELASLLIKIDIFPAKENGDLSPFSGTSLRERGSDASGQLFHGRAREGSFESRYQQPFEDFRISQEHLADHFDSRERRAPRRTRVNGDNRL

Variants of: B1
Details: with fgfr1_human FGFR1, P11362
Chain of fgfr1_human FGFR1, P11362 (P11362 whole entry, looked up): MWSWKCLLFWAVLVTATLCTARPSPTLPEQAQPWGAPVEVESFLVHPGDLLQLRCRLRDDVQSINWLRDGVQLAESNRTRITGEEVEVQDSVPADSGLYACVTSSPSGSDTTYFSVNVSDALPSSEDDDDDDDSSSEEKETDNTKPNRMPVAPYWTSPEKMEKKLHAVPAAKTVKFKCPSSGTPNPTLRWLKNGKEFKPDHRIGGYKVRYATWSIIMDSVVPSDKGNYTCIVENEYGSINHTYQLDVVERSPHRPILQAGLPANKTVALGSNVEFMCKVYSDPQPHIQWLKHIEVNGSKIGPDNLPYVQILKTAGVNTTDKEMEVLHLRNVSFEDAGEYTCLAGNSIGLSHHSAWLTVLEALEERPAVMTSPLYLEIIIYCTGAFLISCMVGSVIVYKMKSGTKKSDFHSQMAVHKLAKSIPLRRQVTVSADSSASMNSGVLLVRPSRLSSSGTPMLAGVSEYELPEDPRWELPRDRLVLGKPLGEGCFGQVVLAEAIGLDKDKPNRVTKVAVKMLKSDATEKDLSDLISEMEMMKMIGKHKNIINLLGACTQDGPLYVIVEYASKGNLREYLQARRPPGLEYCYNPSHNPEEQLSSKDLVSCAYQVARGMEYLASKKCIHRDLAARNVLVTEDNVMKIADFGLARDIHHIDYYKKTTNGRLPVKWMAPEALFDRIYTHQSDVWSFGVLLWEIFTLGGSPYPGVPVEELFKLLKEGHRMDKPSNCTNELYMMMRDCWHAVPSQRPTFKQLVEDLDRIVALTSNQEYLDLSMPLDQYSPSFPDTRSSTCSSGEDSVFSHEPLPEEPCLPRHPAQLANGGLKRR

Row | effect of a mutation on the interaction | Variant
1 | disrupting interaction strength | R586L

Variants of: B1
Details: with fgfr1_human FGFR1, P11362
Remark: another data set of the same source

Row | effect of a mutation on the interaction | Variant
2 | increasing interaction strength | Y783F
